# Measurements: patent US20260001928A1 (CORTERIA PHARMACEUTICALS, priority 2022, published 2026)
# *1 amine or outer side, *2 acyl side, *3 side chain or, on linkers, in order; H or OH if unused. Where no end group is shown, it is not given here. Side-chain parts run from the residue outwards. [ ]: non-standard residue; d: D form. The star is where a group is joined. C20 diacid = O=C(O)CCCCCCCCCCCCCCCCCCC(=O)*; γGlu = O=C(O)[C@H](CCC(=O)[*:2])N[*:1]; NMeI = CC[C@H](C)[C@H](NC)C(=O)O; AEEA = NCCOCCOCC(=O)O; Aib = CC(C)(N)C(=O)O
# T1: CRF1R (corticotropin-releasing factor receptor 1), on the CRF1R-overexpression CHO-K1 cell line clone 2 (UniProt P34998 24-415, limits assumed)
# T1 sequence (looked up): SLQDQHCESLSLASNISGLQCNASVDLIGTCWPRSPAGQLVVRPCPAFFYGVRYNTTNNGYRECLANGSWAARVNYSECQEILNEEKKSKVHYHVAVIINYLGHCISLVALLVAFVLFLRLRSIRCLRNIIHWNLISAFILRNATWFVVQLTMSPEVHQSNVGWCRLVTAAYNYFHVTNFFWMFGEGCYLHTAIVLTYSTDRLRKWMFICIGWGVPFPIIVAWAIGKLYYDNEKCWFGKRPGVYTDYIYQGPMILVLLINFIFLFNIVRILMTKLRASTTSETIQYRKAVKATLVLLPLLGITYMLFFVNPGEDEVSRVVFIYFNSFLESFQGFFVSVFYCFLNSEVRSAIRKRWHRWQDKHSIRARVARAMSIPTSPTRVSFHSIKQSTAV
# What was measured:
# [1] = molecular target: T1, CRF1R (corticotropin-releasing factor …); assay: cell-based or functional assay
# [2] = molecular target: Rat CRF2 a (corticotropin-releasing factor receptor 2), on the A7R5 rat aortic smooth muscle cell line (rat, UniProt P47866 20-411); assay: cell-based or functional assay
# Sequence of Rat CRF2 a (corticotropin-releasing factor receptor 2), on the A7R5 rat aortic smooth muscle cell line (P47866 20-411): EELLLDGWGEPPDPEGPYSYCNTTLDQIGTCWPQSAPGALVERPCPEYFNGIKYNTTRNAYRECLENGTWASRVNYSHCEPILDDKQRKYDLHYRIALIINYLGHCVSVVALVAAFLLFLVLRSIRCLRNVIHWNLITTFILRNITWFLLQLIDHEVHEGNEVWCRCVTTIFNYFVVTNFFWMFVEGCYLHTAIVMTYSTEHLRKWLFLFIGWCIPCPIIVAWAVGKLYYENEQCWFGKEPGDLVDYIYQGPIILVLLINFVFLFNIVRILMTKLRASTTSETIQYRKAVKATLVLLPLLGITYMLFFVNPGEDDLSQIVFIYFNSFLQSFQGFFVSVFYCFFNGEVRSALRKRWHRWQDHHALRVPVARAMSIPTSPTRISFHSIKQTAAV
Binder,"EC50 [nM] (cAMP, CRF1R-overexpression CHO-K1 cells) [1]","Emax (% I) (cAMP, 100% = Sauvagine at 100 nM) [1]","EC50 [nM] 0% HSA (cAMP, A7R5 rat aortic smooth muscle cells) [2] [nM]"
Ac-IVLSLD[dV]PIKLK([γGlu-γGlu-C20 diacid])KILLEQEKQKKQREQAETN[Aib]QILAQV-NH2 (SMILES CC[C@H](C)[C@H](NC(C)=O)C(=O)N[C@H](C(=O)N[C@@H](CC(C)C)C(=O)N[C@@H](CO)C(=O)N[C@@H](CC(C)C)C(=O)N[C@@H](CC(=O)O)C(=O)N[C@@H](C(=O)N1CCC[C@H]1C(=O)N[C@H](C(=O)N[C@@H](CCCCN)C(=O)N[C@@H](CC(C)C)C(=O)N[C@@H](CCCCNC(=O)CC[C@H](NC(=O)CC[C@H](NC(=O)CCCCCCCCCCCCCCCCCCC(=O)O)C(=O)O)C(=O)O)C(=O)N[C@@H](CCCCN)C(=O)N[C@H](C(=O)N[C@@H](CC(C)C)C(=O)N[C@@H](CC(C)C)C(=O)N[C@@H](CCC(=O)O)C(=O)N[C@@H](CCC(N)=O)C(=O)N[C@@H](CCC(=O)O)C(=O)N[C@@H](CCCCN)C(=O)N[C@@H](CCC(N)=O)C(=O)N[C@@H](CCCCN)C(=O)N[C@@H](CCCCN)C(=O)N[C@@H](CCC(N)=O)C(=O)N[C@@H](CCCNC(=N)N)C(=O)N[C@@H](CCC(=O)O)C(=O)N[C@@H](CCC(N)=O)C(=O)N[C@@H](C)C(=O)N[C@@H](CCC(=O)O)C(=O)N[C@H](C(=O)N[C@@H](CC(N)=O)C(=O)NC(C)(C)C(=O)N[C@@H](CCC(N)=O)C(=O)N[C@H](C(=O)N[C@@H](CC(C)C)C(=O)N[C@@H](C)C(=O)N[C@@H](CCC(N)=O)C(=O)N[C@H](C(N)=O)C(C)C)[C@@H](C)CC)[C@@H](C)O)[C@@H](C)CC)[C@@H](C)CC)C(C)C)C(C)C) [peptide of SEQ ID NO: 243],> 250,8,0.09
Ac-IVLSLD[dV]PIKLK([AEEA-AEEA-γGlu-C20 diacid])KILLEQEKQKKQREQAETN[Aib]QILAQV-NH2 (SMILES CC[C@H](C)[C@H](NC(C)=O)C(=O)N[C@H](C(=O)N[C@@H](CC(C)C)C(=O)N[C@@H](CO)C(=O)N[C@@H](CC(C)C)C(=O)N[C@@H](CC(=O)O)C(=O)N[C@@H](C(=O)N1CCC[C@H]1C(=O)N[C@H](C(=O)N[C@@H](CCCCN)C(=O)N[C@@H](CC(C)C)C(=O)N[C@@H](CCCCNC(=O)COCCOCCNC(=O)COCCOCCNC(=O)CC[C@H](NC(=O)CCCCCCCCCCCCCCCCCCC(=O)O)C(=O)O)C(=O)N[C@@H](CCCCN)C(=O)N[C@H](C(=O)N[C@@H](CC(C)C)C(=O)N[C@@H](CC(C)C)C(=O)N[C@@H](CCC(=O)O)C(=O)N[C@@H](CCC(N)=O)C(=O)N[C@@H](CCC(=O)O)C(=O)N[C@@H](CCCCN)C(=O)N[C@@H](CCC(N)=O)C(=O)N[C@@H](CCCCN)C(=O)N[C@@H](CCCCN)C(=O)N[C@@H](CCC(N)=O)C(=O)N[C@@H](CCCNC(=N)N)C(=O)N[C@@H](CCC(=O)O)C(=O)N[C@@H](CCC(N)=O)C(=O)N[C@@H](C)C(=O)N[C@@H](CCC(=O)O)C(=O)N[C@H](C(=O)N[C@@H](CC(N)=O)C(=O)NC(C)(C)C(=O)N[C@@H](CCC(N)=O)C(=O)N[C@H](C(=O)N[C@@H](CC(C)C)C(=O)N[C@@H](C)C(=O)N[C@@H](CCC(N)=O)C(=O)N[C@H](C(N)=O)C(C)C)[C@@H](C)CC)[C@@H](C)O)[C@@H](C)CC)[C@@H](C)CC)C(C)C)C(C)C) [peptide of SEQ ID NO: 238],> 250,12,0.09
Ac-IVLSLD[dV]PIKLK([AEEA-AEEA-γGlu-C20 diacid])KILLEQEKQKAQREQAETN[Aib]QILAQV-NH2 (SMILES CC[C@H](C)[C@H](NC(C)=O)C(=O)N[C@H](C(=O)N[C@@H](CC(C)C)C(=O)N[C@@H](CO)C(=O)N[C@@H](CC(C)C)C(=O)N[C@@H](CC(=O)O)C(=O)N[C@@H](C(=O)N1CCC[C@H]1C(=O)N[C@H](C(=O)N[C@@H](CCCCN)C(=O)N[C@@H](CC(C)C)C(=O)N[C@@H](CCCCNC(=O)COCCOCCNC(=O)COCCOCCNC(=O)CC[C@H](NC(=O)CCCCCCCCCCCCCCCCCCC(=O)O)C(=O)O)C(=O)N[C@@H](CCCCN)C(=O)N[C@H](C(=O)N[C@@H](CC(C)C)C(=O)N[C@@H](CC(C)C)C(=O)N[C@@H](CCC(=O)O)C(=O)N[C@@H](CCC(N)=O)C(=O)N[C@@H](CCC(=O)O)C(=O)N[C@@H](CCCCN)C(=O)N[C@@H](CCC(N)=O)C(=O)N[C@@H](CCCCN)C(=O)N[C@@H](C)C(=O)N[C@@H](CCC(N)=O)C(=O)N[C@@H](CCCNC(=N)N)C(=O)N[C@@H](CCC(=O)O)C(=O)N[C@@H](CCC(N)=O)C(=O)N[C@@H](C)C(=O)N[C@@H](CCC(=O)O)C(=O)N[C@H](C(=O)N[C@@H](CC(N)=O)C(=O)NC(C)(C)C(=O)N[C@@H](CCC(N)=O)C(=O)N[C@H](C(=O)N[C@@H](CC(C)C)C(=O)N[C@@H](C)C(=O)N[C@@H](CCC(N)=O)C(=O)N[C@H](C(N)=O)C(C)C)[C@@H](C)CC)[C@@H](C)O)[C@@H](C)CC)[C@@H](C)CC)C(C)C)C(C)C) [peptide of SEQ ID NO: 240],> 250,4,2.3

# The next lines start with the values.
"EC50 [nM] (cAMP, CRF1R-overexpression CHO-K1 cells) [1]","Emax (% I) (cAMP, 100% = Sauvagine at 100 nM) [1]","EC50 [nM] 0% HSA (cAMP, A7R5 rat aortic smooth muscle cells) [2] [nM]",Binder
> 250,6,0.4,[NMeI]VLSLD[dV]PIKLK([γGlu-γGlu-C20 diacid])KILLEQEKQKEQREQAETN[Aib]QILAQV-NH2 (N-terminus assumed; SMILES CC[C@H](C)[C@H](NC)C(=O)N[C@H](C(=O)N[C@@H](CC(C)C)C(=O)N[C@@H](CO)C(=O)N[C@@H](CC(C)C)C(=O)N[C@@H](CC(=O)O)C(=O)N[C@@H](C(=O)N1CCC[C@H]1C(=O)N[C@H](C(=O)N[C@@H](CCCCN)C(=O)N[C@@H](CC(C)C)C(=O)N[C@@H](CCCCNC(=O)CC[C@H](NC(=O)CC[C@H](NC(=O)CCCCCCCCCCCCCCCCCCC(=O)O)C(=O)O)C(=O)O)C(=O)N[C@@H](CCCCN)C(=O)N[C@H](C(=O)N[C@@H](CC(C)C)C(=O)N[C@@H](CC(C)C)C(=O)N[C@@H](CCC(=O)O)C(=O)N[C@@H](CCC(N)=O)C(=O)N[C@@H](CCC(=O)O)C(=O)N[C@@H](CCCCN)C(=O)N[C@@H](CCC(N)=O)C(=O)N[C@@H](CCCCN)C(=O)N[C@@H](CCC(=O)O)C(=O)N[C@@H](CCC(N)=O)C(=O)N[C@@H](CCCNC(=N)N)C(=O)N[C@@H](CCC(=O)O)C(=O)N[C@@H](CCC(N)=O)C(=O)N[C@@H](C)C(=O)N[C@@H](CCC(=O)O)C(=O)N[C@H](C(=O)N[C@@H](CC(N)=O)C(=O)NC(C)(C)C(=O)N[C@@H](CCC(N)=O)C(=O)N[C@H](C(=O)N[C@@H](CC(C)C)C(=O)N[C@@H](C)C(=O)N[C@@H](CCC(N)=O)C(=O)N[C@H](C(N)=O)C(C)C)[C@@H](C)CC)[C@@H](C)O)[C@@H](C)CC)[C@@H](C)CC)C(C)C)C(C)C) [peptide of SEQ ID NO: 242]
> 250,7,3.52,Ac-IVLSLD[dV]PIKLK([γGlu-γGlu-C20 diacid])KILLEQEKQKEQREQAETN[Aib]QILAQV-NH2 (SMILES CC[C@H](C)[C@H](NC(C)=O)C(=O)N[C@H](C(=O)N[C@@H](CC(C)C)C(=O)N[C@@H](CO)C(=O)N[C@@H](CC(C)C)C(=O)N[C@@H](CC(=O)O)C(=O)N[C@@H](C(=O)N1CCC[C@H]1C(=O)N[C@H](C(=O)N[C@@H](CCCCN)C(=O)N[C@@H](CC(C)C)C(=O)N[C@@H](CCCCNC(=O)CC[C@H](NC(=O)CC[C@H](NC(=O)CCCCCCCCCCCCCCCCCCC(=O)O)C(=O)O)C(=O)O)C(=O)N[C@@H](CCCCN)C(=O)N[C@H](C(=O)N[C@@H](CC(C)C)C(=O)N[C@@H](CC(C)C)C(=O)N[C@@H](CCC(=O)O)C(=O)N[C@@H](CCC(N)=O)C(=O)N[C@@H](CCC(=O)O)C(=O)N[C@@H](CCCCN)C(=O)N[C@@H](CCC(N)=O)C(=O)N[C@@H](CCCCN)C(=O)N[C@@H](CCC(=O)O)C(=O)N[C@@H](CCC(N)=O)C(=O)N[C@@H](CCCNC(=N)N)C(=O)N[C@@H](CCC(=O)O)C(=O)N[C@@H](CCC(N)=O)C(=O)N[C@@H](C)C(=O)N[C@@H](CCC(=O)O)C(=O)N[C@H](C(=O)N[C@@H](CC(N)=O)C(=O)NC(C)(C)C(=O)N[C@@H](CCC(N)=O)C(=O)N[C@H](C(=O)N[C@@H](CC(C)C)C(=O)N[C@@H](C)C(=O)N[C@@H](CCC(N)=O)C(=O)N[C@H](C(N)=O)C(C)C)[C@@H](C)CC)[C@@H](C)O)[C@@H](C)CC)[C@@H](C)CC)C(C)C)C(C)C) [peptide of SEQ ID NO: 241]
